Assay results published in patent publication US20140242081A1.

Tests used:
[1] = molecular target: human CD3 on T cells (human) (UniProt P07766); assay: cell-based or functional assay
[2] = molecular target: human CEA on cells (CHO/huCEA, ASPC-1, LS1034) (human) (UniProt P06731); assay: cell-based or functional assay
human CD3 (human) = human CD3 (human) (UniProt P07766); assay: method not stated; KD of the CD3 binding arm, used to calculate fractional receptor occupancy

Chain of UniProt P06731 (P06731 35-702): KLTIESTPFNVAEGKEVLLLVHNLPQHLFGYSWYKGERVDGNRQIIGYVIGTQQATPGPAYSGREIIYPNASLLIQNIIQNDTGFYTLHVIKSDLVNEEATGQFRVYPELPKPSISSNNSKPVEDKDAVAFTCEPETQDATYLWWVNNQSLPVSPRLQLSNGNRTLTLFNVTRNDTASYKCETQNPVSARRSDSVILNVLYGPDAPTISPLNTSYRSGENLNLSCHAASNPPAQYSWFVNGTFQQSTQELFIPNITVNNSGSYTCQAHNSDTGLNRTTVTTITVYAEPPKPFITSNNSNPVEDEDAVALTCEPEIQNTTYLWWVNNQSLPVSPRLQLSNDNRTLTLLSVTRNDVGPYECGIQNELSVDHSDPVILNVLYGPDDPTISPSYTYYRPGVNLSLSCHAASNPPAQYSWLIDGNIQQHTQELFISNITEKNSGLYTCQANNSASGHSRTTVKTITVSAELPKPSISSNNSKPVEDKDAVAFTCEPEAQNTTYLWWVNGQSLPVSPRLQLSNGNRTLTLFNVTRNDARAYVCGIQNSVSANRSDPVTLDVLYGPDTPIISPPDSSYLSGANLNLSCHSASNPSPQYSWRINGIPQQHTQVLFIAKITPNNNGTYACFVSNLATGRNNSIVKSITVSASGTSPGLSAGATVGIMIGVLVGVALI

Work on MEDI-565 (bispecific antibody) yielded an EC20 of CD25 de novo expression, C/P (PBMC without CD14 cocultured with CHO/huCEA), mean [1] of 0.217 ng/mL, an EC20 of CD25 upregulation on T cells (ASPC-1 target cells, PBMC with CD3ε, 48 h), mean of 10 donors [1] of 0.376 ng/mL and an EC20 of CD69 de novo expression, A/3 (PBMC with CD3ε cocultured with ASPC-1), mean [1] of 0.105 ng/mL. The EC20 of CD69 de novo expression, C/P (PBMC without CD14 cocultured with CHO/huCEA), mean [1] was 0.134 ng/mL, the EC20 of CD69 upregulation on T cells (ASPC-1 target cells, PBMC with CD3ε, 48 h), mean of 5 donors [1] was 0.441 ng/mL and the EC20 of IFNγ release (ASPC-1 target cells, PBMC with CD3ε, 48 h), mean [1] was 1.56 ng/mL. It also gave an EC20 of IL2 release (ASPC-1 target cells, PBMC with CD3ε, 48 h), mean [1] of 0.732 ng/mL, an EC20 of IL6 release (ASPC-1 target cells, PBMC with CD3ε, 48 h), mean [1] of 1.83 ng/mL and an EC20 of IL10 release (ASPC-1 target cells, PBMC with CD3ε, 48 h), mean [1] of 0.686 ng/mL. For the same substance, the EC20 of TNFα release (ASPC-1 target cells, PBMC with CD3ε, 48 h), mean [1] was 1.29 ng/mL, the EC50 of CD25 upregulation on T cells (ASPC-1 target cells, PBMC with CD3ε, 48 h), mean of 10 donors [1] was 4.65 ng/mL and the EC50 of CD69 de novo expression, A/3 (PBMC with CD3ε cocultured with ASPC-1), mean [1] was 1.26 ng/mL. For the same substance, the EC50 of CD69 de novo expression, C/3 (PBMC with CD3ε cocultured with CHO/huCEA), one value [1] was 1.34 ng/mL, the EC50 of CD69 upregulation on T cells (ASPC-1 target cells, PBMC with CD3ε, 48 h), mean of 5 donors [1] was 13.8 ng/mL and the EC50 of IFNγ release (ASPC-1 target cells, PBMC with CD3ε, 48 h), mean [1] was 3.29 ng/mL. The EC50 of IL2 release (ASPC-1 target cells, PBMC with CD3ε, 48 h), mean [1] was 2.14 ng/mL, the EC50 of IL6 release (ASPC-1 target cells, PBMC with CD3ε, 48 h), mean [1] was 4.04 ng/mL and the EC50 of IL10 release (ASPC-1 target cells, PBMC with CD3ε, 48 h), mean [1] was 3.92 ng/mL. It also gave an EC50 of TNFα release (ASPC-1 target cells, PBMC with CD3ε, 48 h), mean [1] of 6.56 ng/mL, a mean EC20 of CD25 upregulation (PBMC with CD3ε cocultured with CHO/huCEA, E:T 10:1, 72 h) [1] of 0.269 ng/mL and an EC20 of specific lysis of ASPC-1 cells (PBMC with CD3ε, E:T 5:1, 48 h), mean of 10 donors [2] of 0.097 ng/mL. It also gave an EC20 of specific lysis, C/P (CHO/huCEA cocultured with PBMC without CD14), mean [2] of 0.371 ng/mL, an EC50 of specific lysis of ASPC-1 cells (PBMC with CD3ε, E:T 5:1, 48 h), mean of 10 donors [2] of 2.03 ng/mL and an EC50 of specific lysis, A/P (ASPC-1 cocultured with PBMC without CD14), mean [2] of 0.971 ng/mL. The mean EC20 of specific lysis of ASPC-1 cells (PBMC with CD3ε, E:T 5:1, 48 h; Example 1, 11 donors) [2] was 0.05 ng/mL and the Kd (human CD3 (human)) was 307 nM.
